Test results from patent US20040152630A1.

Molecular target: different isoforms of the 14-3-3
Assay: not stated (R18 isolated by phage display; Wang et al. 1999 cited)

- Kd: 80 nM
B1: R18 polypeptide (14-3-3 amphipathic groove binding antagonist) (peptide)
peptide: PHCVPRDLSWLDLEANMCLP
